Patent US20260242735A1 (UNIVERSIT T BASEL, published 2026)

Experiments:
human CD33 P46Y = human CD33 P46Y (human, UniProt P20138 18-364); assay: flow cytometry, transfected cells
human CD33 P19K = human CD33 P19K (human, UniProt P20138 18-364); assay: flow cytometry, transfected cells
human CD33 N20G = human CD33 N20G (human, UniProt P20138 18-364); assay: flow cytometry, transfected cells
human CD33 N20D = human CD33 N20D (human, UniProt P20138 18-364); assay: flow cytometry, transfected cells
Chain of human CD33 N20D (P20138 18-364 N20D limits assumed): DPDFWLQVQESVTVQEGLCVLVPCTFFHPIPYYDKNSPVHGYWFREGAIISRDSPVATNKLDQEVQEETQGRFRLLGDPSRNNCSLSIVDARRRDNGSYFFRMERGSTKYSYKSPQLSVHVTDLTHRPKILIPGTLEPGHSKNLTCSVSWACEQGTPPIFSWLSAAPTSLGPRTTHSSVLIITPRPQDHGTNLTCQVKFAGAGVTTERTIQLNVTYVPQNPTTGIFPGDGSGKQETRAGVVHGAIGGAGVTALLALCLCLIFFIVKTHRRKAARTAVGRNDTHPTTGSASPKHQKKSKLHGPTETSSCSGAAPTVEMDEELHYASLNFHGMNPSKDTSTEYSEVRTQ

human CD33 N20K = human CD33 N20K (human, UniProt P20138 18-364); assay: flow cytometry, transfected cells
Chain of human CD33 N20K (P20138 18-364 N20K limits assumed): as the sequence (P20138 18-364 N20D limits assumed) above, with D3K counted along it

human CD33 N20V = human CD33 N20V (human, UniProt P20138 18-364); assay: flow cytometry, transfected cells
Chain of human CD33 N20V (P20138 18-364 N20V limits assumed): as the sequence (P20138 18-364 N20D limits assumed) above, with D3V counted along it

human CD33 P48H = human CD33 P48H (human, UniProt P20138 18-364); assay: flow cytometry, transfected cells
Chain of human CD33 P48H (P20138 18-364 P48H limits assumed): as the sequence (P20138 18-364 N20D limits assumed) above, with D3N, P31H counted along it

human CD33 P48F = human CD33 P48F (human, UniProt P20138 18-364); assay: flow cytometry, transfected cells
human CD33 P48M = human CD33 P48M (human, UniProt P20138 18-364); assay: flow cytometry, transfected cells
human CD33 P48W = human CD33 P48W (human, UniProt P20138 18-364); assay: flow cytometry, transfected cells
Chain of human CD33 P48W (P20138 18-364 P48W limits assumed): as the sequence (P20138 18-364 N20D limits assumed) above, with D3N, P31W counted along it

human CD33 P48N = human CD33 P48N (human, UniProt P20138 18-364); assay: flow cytometry, transfected cells
Chain of human CD33 P48N (P20138 18-364 P48N limits assumed): as the sequence (P20138 18-364 N20D limits assumed) above, with D3N, P31N counted along it

human CD33 P48D = human CD33 P48D (human, UniProt P20138 18-364); assay: flow cytometry, transfected cells
Chain of human CD33 P48D (P20138 18-364 P48D limits assumed): as the sequence (P20138 18-364 N20D limits assumed) above, with D3N, P31D counted along it

human CD33 P48S = human CD33 P48S (human, UniProt P20138 18-364); assay: flow cytometry, transfected cells
human CD33 Y49D = human CD33 Y49D (human, UniProt P20138 18-364); assay: flow cytometry, transfected cells
human CD33 Y49T = human CD33 Y49T (human, UniProt P20138 18-364); assay: flow cytometry, transfected cells
human CD33 Y50S = human CD33 Y50S (human, UniProt P20138 18-364); assay: flow cytometry, transfected cells
Chain of human CD33 Y50S (P20138 18-364 Y50S limits assumed): as the sequence (P20138 18-364 N20D limits assumed) above, with D3N, Y33S counted along it

human CD33 Y50I = human CD33 Y50I (human, UniProt P20138 18-364); assay: flow cytometry, transfected cells
[1] = target: human CD33 extracellular region F21L (human, UniProt P20138 22-259); assay: BLI Octet, IgG captured on AHC, CD33 analyte;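 also: CD33 variants and wild type run as analyte at 5, 50 and 500 nM, 700 s association then 1200 s dissociation, buffer-only reference subtracted, global 1:1 fit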
Chain of human CD33 extracellular region F21L (P20138 other isoform, or with tags, fused parts or gaps F21L F21L): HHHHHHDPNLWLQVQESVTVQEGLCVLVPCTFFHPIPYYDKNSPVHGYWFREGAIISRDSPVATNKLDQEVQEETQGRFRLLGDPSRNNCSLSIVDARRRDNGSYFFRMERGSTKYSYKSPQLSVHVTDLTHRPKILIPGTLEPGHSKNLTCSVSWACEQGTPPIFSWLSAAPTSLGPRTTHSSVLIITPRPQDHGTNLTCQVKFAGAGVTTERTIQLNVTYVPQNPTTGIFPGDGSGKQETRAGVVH

human CD33 S131K = human CD33 S131K (human, UniProt P20138 18-364); assay: flow cytometry, transfected cells
human CD33 P132S = human CD33 P132S (human, UniProt P20138 18-364); assay: flow cytometry, transfected cells
human CD33 P132L = human CD33 P132L (human, UniProt P20138 18-364); assay: flow cytometry, transfected cells
human CD33 W22L = human CD33 W22L (human, UniProt P20138 18-364); assay: flow cytometry, transfected cells
Chain of human CD33 W22L (P20138 18-364 W22L limits assumed): as the sequence (P20138 18-364 N20D limits assumed) above, with D3N, W5L counted along it

human CD33 W22Y = human CD33 W22Y (human, UniProt P20138 18-364); assay: flow cytometry, transfected cells
human CD33 W22N = human CD33 W22N (human, UniProt P20138 18-364); assay: flow cytometry, transfected cells
Chain of human CD33 W22N (P20138 18-364 W22N limits assumed): as the sequence (P20138 18-364 N20D limits assumed) above, with D3N, W5N counted along it

human CD33 W22Q = human CD33 W22Q (human, UniProt P20138 18-364); assay: flow cytometry, transfected cells
human CD33 Q24E = human CD33 Q24E (human, UniProt P20138 18-364); assay: flow cytometry, transfected cells
human CD33 F44P = human CD33 F44P (human, UniProt P20138 18-364); assay: flow cytometry, transfected cells
human CD33 F44D = human CD33 F44D (human, UniProt P20138 18-364); assay: flow cytometry, transfected cells
human CD33 H45Y = human CD33 H45Y (human, UniProt P20138 18-364); assay: flow cytometry, transfected cells
human CD33 P46S = human CD33 P46S (human, UniProt P20138 18-364); assay: flow cytometry, transfected cells
human CD33 Y129S = human CD33 Y129S (human, UniProt P20138 18-364); assay: flow cytometry, transfected cells
human CD33 D18R = human CD33 D18R (human, UniProt P20138 19-364); assay: flow cytometry, transfected cells
human CD33 Y129A = target: T1, human CD33 Y129A (human, UniProt P20138 18-364); assay: alanine scan, flow cytometry, HEK293-T;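 also: antibody binding to each alanine-substituted CD33 mutant expressed transiently in HEK293-T, read as fluorescence minus background, mean of duplicates, relative to wild-type CD33 set as 100%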
T1 construct: alanine scan clone, transfected HEK293-T

human CD33 L134A = target: T2, human CD33 L134A (human, UniProt P20138 18-364); assay: alanine scan, flow cytometry, HEK293-T;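 also: antibody binding to each alanine-substituted CD33 mutant expressed transiently in HEK293-T, read as fluorescence minus background, mean of duplicates, relative to wild-type CD33 set as 100%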
T2 construct: alanine scan clone, transfected HEK293-T

human CD33 D51K = human CD33 D51K (human, UniProt P20138 18-364); assay: flow cytometry, transfected cells
human CD33 K52G = human CD33 K52G (human, UniProt P20138 18-364); assay: flow cytometry, transfected cells
human CD33 P48I = human CD33 P48I (human, UniProt P20138 18-364); assay: flow cytometry, transfected cells
human CD33 K52L = human CD33 K52L (human, UniProt P20138 18-364); assay: flow cytometry, transfected cells
human CD33 Y49H = human CD33 Y49H (human, UniProt P20138 18-364); assay: flow cytometry, transfected cells
human CD33 C212A = human CD33 C212A (human, UniProt P20138 18-364); assay: alanine scan, flow cytometry;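 also: HEK293-T cells transiently expressing single-residue alanine mutants of CD33 (alanine swapped to serine), antibody binding read by fluorescence in duplicate, background-subtracted, expressed relative to wild-type CD33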

Chain of human CD33 P46Y (P20138 18-364 P46Y limits assumed): as the sequence (P20138 18-364 N20D limits assumed) above, with D3N, P29Y counted along it
Chain of human CD33 N20G (P20138 18-364 N20G limits assumed): as the sequence (P20138 18-364 N20D limits assumed) above, with D3G counted along it
Chain of human CD33 P19K (P20138 18-364 P19K limits assumed): as the sequence (P20138 18-364 N20D limits assumed) above, with P2K, D3N counted along it

B1: Refmab #1 (antibody, human IgG1, V domains shown)
VH: EVQLVQSGAEVKKPGSSVKVSCKASGYTITDSNIHWVRQAPGQSLEWIGYIYPYNGGTDYNQKFKNRATLTVDNPTNTAYMELSSLRSEDTAFYYCVNGNPWLAYWGQGTLVTVSS
VL: DIQLTQSPSTLSASVGDRVTITCRASESLDNYGIRFLTWFQQKPGKAPKLLMYAASNQGSGVPSRFSGSGSGTEFTLTISSLQPDDFATYYCQQTKEVPWSFGQGTKVEVK
notes: also called hP67.6; Absolute Antibody Cat. No. Ab00283-10.0
B1: no binding (tested: below 20%) (human CD33 P46Y); no binding (tested: below 20%) (human CD33 P19K); no binding (tested: below 20%) (human CD33 N20G). B1: no binding (tested: below 20%) (human CD33 N20D); no binding (tested: below 20%) (human CD33 N20K); no binding (tested: below 20%) (human CD33 N20V).

B2: Refmab #4 (antibody, human IgG1, V domains shown)
VH: QVQLVQSGAEVKKPGESVKVSCKASGYTFTNYGMNWVKQAPGQGLEWMGWINTYTGEPTYADKFQGRVTMTTDTSTSTAYMEIRNLGGDDTAVYYCARWSWSDGYYVYFDYWGQGTSVTVSS
VL: DIVMTQSPDSLTVSLGERTTINCKSSQSVLDSSTNKNSLAWYQQKPGQPPKLLLSWASTRESGIPDRFSGSGSGTDFTLTIDSPQPEDSATYYCQQSAHFPITFGQGTRLEIK
B2: no binding (tested: below 20%) (human CD33 P48H); no binding (tested: below 20%) (human CD33 P48F); no binding (tested: below 20%) (human CD33 P48M). B2: no binding (tested: below 20%) (human CD33 P48W); no binding (tested: below 20%) (human CD33 P48N); no binding (tested: below 20%) (human CD33 P48D). B2: no binding (tested: below 20%) (human CD33 P48S); no binding (tested: below 20%) (human CD33 Y49D); no binding (tested: below 20%) (human CD33 Y49T). The binding result (human CD33 Y50S) was “no binding (tested: below 20%)”, the binding result (human CD33 Y50I) was “no binding (tested: below 20%)” and the “% WT binding” value [1] was 109%.

B3: Refmab #6 (antibody, human IgG1, V domains shown)
VH: QVQLQQPGAEVVKPGASVKMSCKASGYTFTSYYIHWIKQTPGQGLEWVGVIYPGNDDISYNQKFQGKATLTADKSSTTAYMQLSSLTSEDSAVYYCAREVRLRYFDVWGQGTTVTVSS
VL: EIVLTQSPGSLAVSPGERVTMSCKSSQSVFFSSSQKNYLAWYQQIPGQSPRLLIYWASTRESGVPDRFTGSGSGTDFTLTISSVQPEDLAIYYCHQYLSSRTFGQGTKLEIK
B3: no binding (tested: below 20%) (human CD33 S131K); no binding (tested: below 20%) (human CD33 P132S); no binding (tested: below 20%) (human CD33 P132L). B3: no binding (tested: below 20%) (human CD33 W22L); no binding (tested: below 20%) (human CD33 W22Y); no binding (tested: below 20%) (human CD33 W22N). B3: no binding (tested: below 20%) (human CD33 W22Q).

B4: Refmab #3 (antibody, human IgG1, V domains shown)
VH: QVQLVQSGAEVKKPGSSVKVSCKASGYTFTDYNMHWVRQAPGQGLEWIGYIYPYNGGTGYNQKFKSKATITADESTNTAYMELSSLRSEDTAVYYCARGRPAMDYWGQGTLVTVSS
VL: DIQMTQSPSSLSASVGDRVTITCRASESVDNYGISFMNWFQQKPGKAPKLLIYAASNQGSGVPSRFSGSGSGTDFTLTISSLQPDDFATYYCQQSKEVPWTFGQGTKVEIK
B4: no binding (tested: below 20%) (human CD33 Q24E); no binding (tested: below 20%) (human CD33 F44P); no binding (tested: below 20%) (human CD33 F44D). B4: no binding (tested: below 20%) (human CD33 H45Y); no binding (tested: below 20%) (human CD33 P46S); no binding (tested: below 20%) (human CD33 P46Y). B4: no binding (tested: below 20%) (human CD33 Y129S); no binding (tested: below 20%) (human CD33 D18R); no binding (tested: below 20%) (human CD33 P19K). B4: no binding (tested: below 20%) (human CD33 N20G); no binding (tested: below 20%) (human CD33 N20D); no binding (tested: below 20%) (human CD33 N20K). B4: no binding (tested: below 20%) (human CD33 N20V); no binding (tested: below 20%) (human CD33 W22L); no binding (tested: below 20%) (human CD33 W22N). The “% WT binding” value [1] was 0%.

B5: Refmab #5 (antibody, V domains shown)
VH: QVQLVQSGAEVKKPGASVKVSCKASGYTFTNYDINWVRQAPGQGLEWIGWIYPGDGSTKYNEKFKAKATLTADTSTSTAYMELRSLRSDDTAVYYCASGYEDAMDYWGQGTTVTVSS
VL: DIQMTQSPSSLSASVGDRVTINCKASQDINSYLSWFQQKPGKAPKTLIYRANRLVDGVPSRFSGSGSGQDYTLTISSLQPEDFATYYCLQYDEFPLTFGGGTKVEIK
notes: The alanine scan used IgG or Fab
With B5 the “Mean % WT Binding” value (human CD33 Y129A) was 196 % WT binding and the “Mean % WT Binding” value (human CD33 L134A) was 95.9 % WT binding.

B6: Refmab #5 (antibody, human IgG1, V domains shown)
VH: QVQLVQSGAEVKKPGASVKVSCKASGYTFTNYDINWVRQAPGQGLEWIGWIYPGDGSTKYNEKFKAKATLTADTSTSTAYMELRSLRSDDTAVYYCASGYEDAMDYWGQGTTVTVSS
VL: DIQMTQSPSSLSASVGDRVTINCKASQDINSYLSWFQQKPGKAPKTLIYRANRLVDGVPSRFSGSGSGQDYTLTISSLQPEDFATYYCLQYDEFPLTFGGGTKVEIK
B6: no binding (tested: below 20%) (human CD33 D51K); no binding (tested: below 20%) (human CD33 K52G); no binding (tested: below 20%) (human CD33 P48H). B6: no binding (tested: below 20%) (human CD33 P48I); no binding (tested: below 20%) (human CD33 P48F); no binding (tested: below 20%) (human CD33 P48W). B6: no binding (tested: below 20%) (human CD33 P48N); no binding (tested: below 20%) (human CD33 P48D); no binding (tested: below 20%) (human CD33 K52L). B6: no binding (tested: below 20%) (human CD33 Y49H); no binding (tested: below 20%) (human CD33 Y49D); no binding (tested: below 20%) (human CD33 Y50S). B6: no binding (tested: below 20%) (human CD33 Y50I).

B7: Refmab #5 (antibody, V domains shown)
VH: QVQLVQSGAEVKKPGASVKVSCKASGYTFTNYDINWVRQAPGQGLEWIGWIYPGDGSTKYNEKFKAKATLTADTSTSTAYMELRSLRSDDTAVYYCASGYEDAMDYWGQGTTVTVSS
VL: DIQMTQSPSSLSASVGDRVTINCKASQDINSYLSWFQQKPGKAPKTLIYRANRLVDGVPSRFSGSGSGQDYTLTISSLQPEDFATYYCLQYDEFPLTFGGGTKVEIK
notes: Full-length format is human IgG1 Fc silent (PG-LALA); also made as Fab; The alanine scan used IgG or Fab
B7 was tested, and the “Mean % WT Binding” value (human CD33 C212A) was 28.4 % WT binding.
